Data on 12 molecules can be found in article PMC11128890 (Frontiers in Cell and Developmental Biology, 2024).

Test [1] has as its target VEGFR2/KDR (Homo sapiens) (UniProt P35968). Particulars: cited from earlier work.
The target of test [2] is KDR domain 1 (D1) fused to GST. Description: ELISA-type binding assay. Particulars: GST-KDR-D1 100 μg/mL, read off a plot. In general terms: In an ELISA, binding on a coated surface is turned into a signal by an enzyme label.
The target of test [3] is T1, KDR domain 1 (D1) fused to GST.
T1 chain: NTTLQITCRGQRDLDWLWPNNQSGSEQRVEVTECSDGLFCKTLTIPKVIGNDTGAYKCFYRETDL
Description: ELISA-type binding assay. Particulars: chain shown with the change, read off a plot.

In test [4] the target is T2, recombinant soluble integrin αvβ3 (UniProt P06756 31-987; P05106 27-718).
T2 construct: integrin αv subunit, soluble expression construct; integrin β3 subunit, soluble expression construct; PDB 1L5G is the αvβ3 structure used for docking, not necessarily the same limits; also called soluble αvβ3; source: CHO K1 cells, soluble αv and β3 expression constructs, purified (Ni-NTA)
Description: ELISA; HBD, NTD or HBD mutants coated on 96-well plates, blocked with BSA; soluble αvβ3 (1 μg/mL) in HEPES-Tyrode buffer + 1 mM MnCl2, 1 h room temperature; bound αvβ3 detected with anti-β3 mAb AV10; binding to HBD inhibited by mAb 7E3 and cation-dependent. Particulars: both partners purified.

Test [5] addresses T3, KDR domain 1 (D1), His-tagged.
T3 construct: first IgG-like domain (D1) of VEGFR2/KDR, amplified from full-length KDR cDNA; Cloned into the BamHI/EcoRI site of pET28a; also called KDR D1; KDR D1 (His-tagged)
T3 chain: T1 chain
Description: SPR; KDR D1 (His-tagged) immobilised on CM5 chip by amine coupling; HBD injected at 50 μL/min for 1.8 min; HBS-EP buffer (0.01 M HEPES pH 7.4, 0.15 M NaCl, 3 mM EDTA, 0.0005% P20). The settings on record: both partners purified. (In SPR one partner is held on a chip, and binding of the other changes the refractive index at the surface.)

The target of test [6] is T4, KDR domain 1 (D1), His-tagged.
T4 chain: T1 chain
The experiment in a line: SPR.

Test [7] has as its target T2, recombinant soluble integrin αvβ3. Description: SPR; soluble αvβ3 (His-tagged) immobilised on CM5 chip by amine coupling; HBD injected at 50 μL/min for 1.8 min; HBS-P buffer (0.01 M HEPES pH 7.4, 0.15 M NaCl, 0.0005% P20) with 1 mM Mn2+. Particulars: both partners purified.
Where [8] appears, read: HBD at 10 µg/ml, parent: est. 0.93.
The mark [9] stands for this setting: HBD coated at 20 µg/ml (highest point of the curve), parent: est. 1.4.
The mark [10] stands for this setting: GST-KDR-D1 100 μg/mL, parent: est. 0.51.

T2 sequence (P06756 31-987, chain 1 of 2): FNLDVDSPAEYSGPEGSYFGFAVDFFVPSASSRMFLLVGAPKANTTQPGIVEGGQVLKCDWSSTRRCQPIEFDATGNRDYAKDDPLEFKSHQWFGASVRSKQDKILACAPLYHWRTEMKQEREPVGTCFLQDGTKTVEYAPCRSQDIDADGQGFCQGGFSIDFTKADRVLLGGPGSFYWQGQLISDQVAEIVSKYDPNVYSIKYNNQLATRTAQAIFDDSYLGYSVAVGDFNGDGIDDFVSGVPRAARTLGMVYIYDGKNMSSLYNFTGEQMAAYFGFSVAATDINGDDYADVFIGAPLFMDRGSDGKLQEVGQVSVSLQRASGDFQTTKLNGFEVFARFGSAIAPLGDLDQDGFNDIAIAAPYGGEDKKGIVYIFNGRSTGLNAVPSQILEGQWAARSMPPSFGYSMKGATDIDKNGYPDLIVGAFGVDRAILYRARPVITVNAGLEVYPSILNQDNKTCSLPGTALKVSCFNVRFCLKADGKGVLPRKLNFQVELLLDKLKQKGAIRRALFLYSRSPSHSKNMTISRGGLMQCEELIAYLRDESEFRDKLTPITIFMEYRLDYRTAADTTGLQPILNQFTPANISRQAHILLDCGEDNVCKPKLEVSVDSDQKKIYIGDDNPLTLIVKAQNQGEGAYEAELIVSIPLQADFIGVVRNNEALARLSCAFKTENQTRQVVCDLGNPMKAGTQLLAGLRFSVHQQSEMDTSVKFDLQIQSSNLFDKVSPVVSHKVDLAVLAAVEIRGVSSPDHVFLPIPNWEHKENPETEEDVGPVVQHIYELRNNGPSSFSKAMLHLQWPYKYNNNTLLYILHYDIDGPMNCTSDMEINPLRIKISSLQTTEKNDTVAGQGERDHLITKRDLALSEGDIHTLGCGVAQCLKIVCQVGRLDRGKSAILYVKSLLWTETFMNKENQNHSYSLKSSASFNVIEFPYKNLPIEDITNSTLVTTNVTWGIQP
T2 sequence (P05106 27-718, chain 2 of 2): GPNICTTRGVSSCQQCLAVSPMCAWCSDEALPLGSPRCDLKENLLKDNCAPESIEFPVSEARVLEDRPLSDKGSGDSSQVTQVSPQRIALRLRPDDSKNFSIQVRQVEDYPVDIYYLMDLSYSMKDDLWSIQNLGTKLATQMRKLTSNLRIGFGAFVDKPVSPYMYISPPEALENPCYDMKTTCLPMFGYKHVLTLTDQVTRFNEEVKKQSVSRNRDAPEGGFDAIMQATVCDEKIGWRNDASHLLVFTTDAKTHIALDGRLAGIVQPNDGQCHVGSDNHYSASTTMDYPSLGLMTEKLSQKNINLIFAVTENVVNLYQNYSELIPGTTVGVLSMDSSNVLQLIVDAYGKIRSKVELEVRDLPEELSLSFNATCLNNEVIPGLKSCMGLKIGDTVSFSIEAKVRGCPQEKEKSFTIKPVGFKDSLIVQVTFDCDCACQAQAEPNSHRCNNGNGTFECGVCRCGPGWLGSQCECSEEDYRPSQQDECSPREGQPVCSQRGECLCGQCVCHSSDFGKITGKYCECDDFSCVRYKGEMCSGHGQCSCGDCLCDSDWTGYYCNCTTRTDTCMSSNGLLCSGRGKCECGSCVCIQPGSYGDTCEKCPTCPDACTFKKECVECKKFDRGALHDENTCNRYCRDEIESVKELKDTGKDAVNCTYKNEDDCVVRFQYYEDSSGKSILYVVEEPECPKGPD
VEGFR2/KDR (Homo sapiens), sequence (P35968 20-1356): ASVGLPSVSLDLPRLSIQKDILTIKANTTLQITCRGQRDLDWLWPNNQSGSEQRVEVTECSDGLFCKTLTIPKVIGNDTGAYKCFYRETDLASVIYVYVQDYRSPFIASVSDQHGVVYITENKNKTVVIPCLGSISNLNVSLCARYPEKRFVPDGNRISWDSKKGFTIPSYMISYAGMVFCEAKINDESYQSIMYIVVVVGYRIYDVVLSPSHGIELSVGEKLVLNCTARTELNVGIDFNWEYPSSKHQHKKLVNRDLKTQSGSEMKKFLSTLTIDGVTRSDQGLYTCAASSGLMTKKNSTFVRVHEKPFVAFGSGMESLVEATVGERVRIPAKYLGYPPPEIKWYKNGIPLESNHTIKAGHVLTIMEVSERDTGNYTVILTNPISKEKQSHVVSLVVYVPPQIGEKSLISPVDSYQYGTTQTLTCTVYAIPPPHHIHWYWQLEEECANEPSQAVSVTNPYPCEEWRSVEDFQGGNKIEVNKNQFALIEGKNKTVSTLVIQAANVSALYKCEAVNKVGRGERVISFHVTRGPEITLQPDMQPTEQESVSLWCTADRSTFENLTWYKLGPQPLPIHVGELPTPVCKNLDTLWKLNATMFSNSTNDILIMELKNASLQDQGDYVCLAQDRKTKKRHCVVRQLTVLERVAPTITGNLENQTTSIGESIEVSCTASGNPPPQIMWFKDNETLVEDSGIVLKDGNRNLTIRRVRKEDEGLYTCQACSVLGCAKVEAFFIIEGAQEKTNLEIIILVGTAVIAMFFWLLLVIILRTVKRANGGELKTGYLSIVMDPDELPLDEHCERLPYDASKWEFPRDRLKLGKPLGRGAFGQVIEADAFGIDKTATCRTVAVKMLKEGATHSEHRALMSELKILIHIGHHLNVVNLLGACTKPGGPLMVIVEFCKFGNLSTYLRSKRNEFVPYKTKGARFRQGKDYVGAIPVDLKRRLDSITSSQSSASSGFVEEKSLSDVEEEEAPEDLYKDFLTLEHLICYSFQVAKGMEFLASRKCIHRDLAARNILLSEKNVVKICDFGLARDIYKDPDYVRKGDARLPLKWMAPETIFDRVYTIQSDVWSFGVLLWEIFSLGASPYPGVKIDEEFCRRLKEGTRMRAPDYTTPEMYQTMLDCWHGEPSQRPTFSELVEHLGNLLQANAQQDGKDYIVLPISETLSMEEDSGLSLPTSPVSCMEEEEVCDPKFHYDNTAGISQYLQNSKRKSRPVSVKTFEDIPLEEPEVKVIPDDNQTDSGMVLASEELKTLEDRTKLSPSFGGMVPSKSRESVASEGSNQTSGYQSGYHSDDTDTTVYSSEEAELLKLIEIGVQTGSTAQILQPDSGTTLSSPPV

A word on the Kd: it is the equilibrium constant for the complex coming apart. For VEGF165 (from UniProt P15692), in test [1], the Kd was 0.14 nM.
With “VEGF165 heparin-binding domain (HBD), wild type K140E”, the response in test [2] (setting [8]) was 0.73 OD450; in test [2] (setting [9]), 0.89 OD450.
For the molecule “VEGF165 heparin-binding domain (HBD), wild type K145E”, the results for the response in test [2] (setting [8]) and in test [2] (setting [9]) were 0.74 OD450 and 1.1 OD450, respectively.
As for “VEGF165 heparin-binding domain (HBD), wild type K136E”, in test [2] (setting [8]), the response turned out to be 1 OD450.
With PCGPCSERREHLFVQDPQTCKCSCKNTDSRCKARQLELNERTCRCDKPRR [VEGF165 heparin-binding domain (HBD), wild type K125E], the response in test [3] (setting [10]) is 0.31 OD450.
With PCGPCSEAAAHLFVQDPQTCKCSCKNTDSRCKARQLELNERTCRCDKPRR (domain or fragment, human, the substitutions are to be applied) [VEGF165 HBD R123A/R124A/K125A mutant], the binding result in test [4] is reported as “binds”.
With PCGPCSERRKHLFVQDPQTCKCSCANTDSACKAAQLELNERTCRCDKPRR (domain or fragment, human, the substitutions are to be applied) [VEGF165 HBD K140A/R145A/R149A mutant], in test [4], the binding result is “binds”.
With PCGPCSEEEEHLFVQDPQTCKCSCKNTDSRCKARQLELNERTCRCDKPRR [VEGF165 heparin-binding domain (HBD), wild type R123E; R124E; K125E], the response in test [3] (setting [10]) was 0.06 OD450; in test [3] (HBD at 10 µg/ml, GST-KDR-D1 100 μg/mL, parent: est. 0.93), 0.14 OD450; in test [3] (HBD coated at 20 µg/ml (highest point of the curve), GST-KDR-D1 100 μg/mL, parent: est. 1.4) it was 0.16 OD450.
For the molecule PCGPCSEREKHLFVQDPQTCKCSCKNTDSRCKARQLELNERTCRCDKPRR [VEGF165 heparin-binding domain (HBD), wild type R124E], the response in test [3] (setting [10]) amounted to 0.2 OD450.

B1: VEGF165 heparin-binding domain (HBD), wild type (domain or fragment, human)
chain: PCGPCSERRKHLFVQDPQTCKCSCKNTDSRCKARQLELNERTCRCDKPRR
notes: Cloned into the BamHI/EcoRI site of pET28a; PDB 2VGH is the HBD structure used for docking; also called VEGF165-HBD; VEGF165 HBD
In the case of B1, the Kd in test [5] was approximately 100 nM; in test [6] it was 109 nM; in test [7], 470 nM.
Take PCGPCSEAAAHLFVQDPQTCKCSCANTDSACKAAQLELNERTCRCDKPRR [VEGF165 heparin-binding domain (HBD), wild type R123A; R124A; K125A; K140A; R145A; R149A]: the response in test [3] (left graph (dose-response), HBD coated at 10 µg/ml, soluble GST-tagged KDR fragment 100 μg/mL, parent: est. 0.77) worked out at 0.1 OD450; in test [3] (left graph (dose-response), HBD coated at 20 µg/ml, soluble GST-tagged KDR fragment 100 μg/mL, parent: est. 1.2), 0.16 OD450; in test [3] (right graph (bar chart), 20 µg/ml, n=3, soluble GST-tagged KDR fragment 100 μg/mL, parent: est. 1.4), 0.13 OD450.
Consider PCGPCSEERKHLFVQDPQTCKCSCKNTDSRCKARQLELNERTCRCDKPRR [VEGF165 heparin-binding domain (HBD), wild type R123E], for which the response in test [3] (setting [10]) was found to be 0.14 OD450.
